Data on 57 substances can be found in the supplement of paper PMC12042874.

± gives the uncertainty stated by the source.

The data set in a line: amyloid nucleation score (Sup35N fusion, yeast selection) (log enrichment); library NNK1; higher = more nucleation; inactive = no reads after selection. In outline:
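The nucleation score, computed with DiMSum, is the log enrichment of output over input reads, centred on the mode score of non-aggregating sequences. Sequences with under 100 input reads were dropped. Reads were generated by Illumina sequencing of plasmid inserts from psi-negative yeast with Sup35N fused to peptides of 20 random codons, induced with 100 μM copper sulfate for 24 hours and grown 7 days at 30°C on medium lacking adenine and uracil.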
Regarding VRLNNCNLFFCYMTRIAFAE, the amyloid nucleation score was 4.96 ± 0.067. In the case of VRMKPCSLLNLGTYPAQNVM it was -0.888 ± 1.9. The figure for VRNHVYGLCVSWTAGDKCNR is 5.03 ± 0.087; for VRNVG it is -0.14 ± 0.59. Take VRNVISNKYCRAGYLTKYLL: the amyloid nucleation score was -0.16 ± 0.22. The figure for VRRSEHSRLSYEWGECLRLT is -0.174 ± 0.38; for VRSFNRGFKMHTYIPTHFLW it is -0.55 ± 0.26; for VRSKLPPGSFDSFWGWWEKK it is -0.343 ± 0.45. VRSLAFTNVYFEEGAYVANT: the amyloid nucleation score is -0.532 ± 0.73. Regarding VRSPFSIHRRFLTLGIQEFS, the amyloid nucleation score is 1.4 ± 0.74. With VRVEKNCNFWLFSIVSCLPH, the amyloid nucleation score came to 8.49 ± 0.065.

On to VRVFTHSSVGREE, for which the amyloid nucleation score is -0.177 ± 0.25. The substance VRYEIAA had an amyloid nucleation score of -1.06 ± 2.4. Regarding VSAND, the amyloid nucleation score is -0.547 ± 0.4. For the substance VSCRR, the amyloid nucleation score entry was “inactive”.

Substance VSDHT had an amyloid nucleation score of 1.02 ± 0.47. The entry for VSEHSFWIWGRVPQLTQIIA is “inactive”.

As for VSESDKEGLEK, the amyloid nucleation score was -1.17 ± 1.6.

With VSFIYFRVWILAMDY, the amyloid nucleation score turned out to be 0.842 ± 0.37. The figure for VSFRFLMGFVYVKCWSSSLD is 1.38 ± 0.69; for VSLCVSFFFYRSAVITVYAH it is 0.282 ± 0.58; for VSLVAGTWFYFWHNALVTYH it is -0.067 ± 0.36. With VSNERSWMRCFFMGSRIAHG, the amyloid nucleation score is -0.735 ± 0.4. The substance VSNNYRDV registered an amyloid nucleation score of 0.807 ± 0.72. The figure for VSNTWYLTVNLFLYIIPCN is 6.755 ± 0.058; for VSQTPWTLYLN it is 0.229 ± 0.26. In the case of VSRFFGNRRTNSNENTAGVA it was -1.15 ± 0.43; in that of VSRVNYNVFSVGISKSVCD, 0.201 ± 0.85. In the case of VSSFLLRSFRKCRPLCYIVR it was 3.89 ± 0.085. Regarding VSSFWRELVPYGMVCRESSL, the amyloid nucleation score is 0.178 ± 0.56.

Substance VSSYAIYEECNLPGKAGKPC showed an amyloid nucleation score of -0.213 ± 0.63. For VSTGWKRLKFQLVIGCFS, the amyloid nucleation score turned out to be 0.502 ± 0.53. In the case of VSTLA it was “inactive”; in that of VSVGR, -0.153 ± 1.4. VSVKSNGWMSWWLSWQVPKH displayed an amyloid nucleation score of -0.147 ± 0.63. As to VSWDSMYMAMPWVIVHVL, the amyloid nucleation score result was “inactive”.

VTDFVALFVIGTGPVVGLRW displayed an amyloid nucleation score of 1.27 ± 0.43. The figure for VTKVTLMLFLSCWLF is -0.677 ± 0.47. VTMDCLMLPYRKGNPN showed an amyloid nucleation score of 0.996 ± 0.64.

Turning to VTQIKPVRRLGGL, the amyloid nucleation score was -0.692 ± 0.87.

With VTQSYDFKSLQIISIQN, the amyloid nucleation score was 1.39 ± 0.12. In the case of VTRYTLVYFPLSLIRSTPAN it was 0.62 ± 0.36; in that of VTRYVPECGWKDLDLASWYL, 1.34 ± 0.58; in that of VTSSWNSDAFTWFYNDSWCL, “inactive”.

For the substance VTWGSSPMQKFSMVQIKS, the amyloid nucleation score worked out at 0.564 ± 0.48. The entry for VTYKEQNGLLLFAPDSVQRD is “inactive”; for VTYTEYCSVLLKTH it is -1.81 ± 2.4. The figure for VVAAILHKLS is -0.16 ± 0.41; for VVASSCSFNRRLESSAGYL it is 0.744 ± 0.37. The figure for VVAVE is -0.27 ± 0.38; for VVCFMPVLMAVQMGCSHWNY it is 3.55 ± 0.063; for VVHLSLCMRCALWRYRELVC it is 1.12 ± 0.55.

Consider VVILYIDRFGVLFHHLG, for which the amyloid nucleation score was 0.821 ± 1.1. In the case of VVKVWPYYSYVSMV it was -0.114 ± 0.55. In the case of VVLQVMFARAWWFF it was 0.185 ± 0.33. VVLRLRSSYFGGLAGMA: the amyloid nucleation score amounted to 0.121 ± 0.33. In the case of VVNITYFPMVSVRLICGNVP it was 6.569 ± 0.063.
